For three molecules, koff and Kd results are on record in patent publication US20160017037A1 (GlaxoSmithKline, published 2016).

Test [1] concerns the target T1, Recombinant human LAG-3 ECD-His6 (human, UniProt P18627 23-433).
T1 construct: also called LAG-3-His; recombinant human LAG-3-His
T1 sequence: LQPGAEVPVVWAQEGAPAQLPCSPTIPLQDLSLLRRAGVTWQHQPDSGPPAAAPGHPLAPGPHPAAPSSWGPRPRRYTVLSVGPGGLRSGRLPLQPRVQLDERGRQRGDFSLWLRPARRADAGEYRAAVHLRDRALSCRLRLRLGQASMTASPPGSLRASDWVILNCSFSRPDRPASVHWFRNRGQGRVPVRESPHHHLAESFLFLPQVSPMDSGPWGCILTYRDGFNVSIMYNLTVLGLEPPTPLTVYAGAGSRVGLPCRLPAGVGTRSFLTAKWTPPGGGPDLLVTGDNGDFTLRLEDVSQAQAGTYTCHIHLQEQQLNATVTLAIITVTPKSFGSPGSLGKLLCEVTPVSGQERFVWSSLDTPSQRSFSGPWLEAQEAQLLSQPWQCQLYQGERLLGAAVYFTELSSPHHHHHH
Kind of test: SPR Biacore T100, antibody captured on Protein A, LAG-3 ECD-His6 analyte, 1:1 model, 25 C, geometric mean of 3 runs. The method, then: (§1) Wild type fucosylated and afucosylated antibodies were compared for their ability to bind to recombinant human LAG-3 ECD with a C-terminal His6 (SEQ ID NO:51) using the Biacore™ T100 (GE Healthcare™). Protein A was immobilised on a CM5 chip by primary amine coupling. This surface was then used to capture the humanised antibodies. Recombinant human LAG-3 ECD-His6 was then passed over the captured antibodies at 32, 8, 2, 0.5 and 0.125 nM and regeneration was carried out using 50 mM NaOH. The binding curves were double referenced with buffer injection (i.e. 0 nM) and the data was fitted to the T100 analysis software using the 1:1 model. The run was carried out at 25° C., using HBS-EP as the running buffer.
(§2) In order to investigate the statistical significance of this kinetic data, this experiment was repeated 3 times with the same batch of the four antibodies and the chimeric control. KD, ka and kd parameters were each log (base 10) transformed prior to separate statistical analyses. For each parameter, a mixed model analysis of variance CAnova′) was performed on transformed data, including terms for Run (random block effect) and Antibody.

For test [2], the target named is T2, recombinant soluble human FcγRI (human, UniProt P12314 16-288, limits assumed).
T2 construct: also called CD64
The test is described as follows: SPR ProteOn XPR36, His-tagged receptor captured on anti-poly-histidine IgG, antibody analyte 8-2048 nM, equilibrium model, 25 C. The protocol:
(§3) A goat anti-poly-histidine IgG was immobilised on a GLM biosensor chip by primary amine coupling. This surface was used as a capture surface for the poly-histidine tagged human Fc gamma receptors. […] The goat anti-poly-histidine IgG surface was regenerated with 100 mM phosphoric acid between interactions. The run was carried out on the ProteOn XPR36 Protein Array Interaction System at 25° C. and using HBS-EP as running buffer. Data was analysed for each receptor separately, setting a global R-max and using the Equilibrium Model inherent to the ProteOn's analysis software. Control molecules were run at the beginning and the end of the set of samples to be tested to ensure comparability of results. Data was compared from two experiments and hybrid control antibodies used as controls between experiments.

For test [3], the target named is T3, recombinant soluble human FcγRIIa R131 (human, UniProt P12318 36-218, limits assumed).
T3 sequence (looked up): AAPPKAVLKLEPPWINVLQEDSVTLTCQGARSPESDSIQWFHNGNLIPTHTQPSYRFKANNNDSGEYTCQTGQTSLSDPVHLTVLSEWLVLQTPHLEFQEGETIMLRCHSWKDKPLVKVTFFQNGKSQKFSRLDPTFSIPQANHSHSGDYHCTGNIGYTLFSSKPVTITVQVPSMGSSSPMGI
The description is as above. The protocol: as §3

Test [4] deals with T4, recombinant soluble human FcγRIIa H131 (human, UniProt P12318 36-218, limits assumed).
T4 sequence (looked up): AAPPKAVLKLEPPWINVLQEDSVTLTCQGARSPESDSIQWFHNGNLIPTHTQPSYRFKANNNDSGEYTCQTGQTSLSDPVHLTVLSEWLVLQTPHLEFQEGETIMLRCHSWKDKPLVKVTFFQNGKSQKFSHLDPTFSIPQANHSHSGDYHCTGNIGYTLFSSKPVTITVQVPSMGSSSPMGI
The description is as above. The protocol:
as §3

In test [5] the target is T5, recombinant soluble human FcγRIIIa V158 (human, UniProt P08637 17-208).
T5 construct: also called FcγRIIIa valine V158; CD16
Described as above. The method, then:
as §3

The target in test [6] is T6, recombinant soluble human FcγRIIIa F158 (human, UniProt P08637 17-208).
T6 construct: also called FcγRIIIa phenylalanine F158; CD16
The description is as above. The method, then: as §3

Test [7] concerns the target T1, Recombinant human LAG-3 ECD-His6. The test is described as follows: SPR Biacore T100, antibody captured on Protein A, LAG-3 ECD-His6 analyte, 1:1 model, 25 C, geometric mean of 3 runs (table head says nM; value is in M by paragraph 194). The method, then:
as §1, §2
For orientation: SPR reads the build-up and loss of mass on a sensor chip optically.

T2 sequence (P12314 16-288 limits assumed): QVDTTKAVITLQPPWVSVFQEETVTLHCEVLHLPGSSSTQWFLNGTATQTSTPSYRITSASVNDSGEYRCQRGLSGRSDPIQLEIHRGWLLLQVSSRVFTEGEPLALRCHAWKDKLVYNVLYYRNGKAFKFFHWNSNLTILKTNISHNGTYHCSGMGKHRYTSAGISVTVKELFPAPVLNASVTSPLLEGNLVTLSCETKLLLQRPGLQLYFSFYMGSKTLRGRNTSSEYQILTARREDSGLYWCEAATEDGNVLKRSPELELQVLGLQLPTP
T5 sequence (P08637 17-208 F176V limits assumed): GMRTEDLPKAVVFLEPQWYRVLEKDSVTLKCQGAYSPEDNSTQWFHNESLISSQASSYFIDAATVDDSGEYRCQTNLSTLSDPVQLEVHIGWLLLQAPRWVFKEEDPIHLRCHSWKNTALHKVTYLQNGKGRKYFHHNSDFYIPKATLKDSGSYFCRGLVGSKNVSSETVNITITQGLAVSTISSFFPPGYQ
T6 sequence (P08637 17-208 limits assumed): as the sequence (P08637 17-208 F176V limits assumed) above, with V160F counted along it

B1: H5L7BW (antibody, human IgG1, kappa)
heavy: not shown
light: DIQMTQSPSSLSASVGDRVTITCKSSQSLLNPSNQKNYLAWYQQKPGKAPKLLVYFASTRDSGVPSRFSGSGSGTDFTLTISSLQPEDFATYYCLQHFGTPPTFGQGTKLEIKRTVAAPSVFIFPPSDEQLKSGTASVVCLLNNFYPREAKVQWKVDNALQSGNSQESVTEQDSKDSTYSLSSTLTLSKADYEKHKVYACEVTHQGLSSPVTKSFNRGEC
modifications: afucosylated: no fucose on the core carbohydrate structure attached to Asn297
notes: Same plasmids as H5L7, expressed in the BioWa POTELLIGENT (FUT8 knock-out CHO) cell line; also called afucosylated antibody H5L7BW; afucosylated H5L7
In general, koff refers to the first-order rate constant of dissociation. As a reminder, the Kd is the equilibrium constant for the complex coming apart. Turning to B1, in test [1], the koff is 0.00441 s⁻¹. Also, the equilibrium dissociation constant (Kd) in test [2] was found to be 26.4 nM; in test [3], 1490 nM; in test [4], 1430 nM; in test [5], 21.8 nM; in test [6], 81.1 nM; in test [7], 0.218 nM.

B2: H5L7 (antibody, human IgG1, kappa)
heavy: not shown
light: DIQMTQSPSSLSASVGDRVTITCKSSQSLLNPSNQKNYLAWYQQKPGKAPKLLVYFASTRDSGVPSRFSGSGSGTDFTLTISSLQPEDFATYYCLQHFGTPPTFGQGTKLEIKRTVAAPSVFIFPPSDEQLKSGTASVVCLLNNFYPREAKVQWKVDNALQSGNSQESVTEQDSKDSTYSLSSTLTLSKADYEKHKVYACEVTHQGLSSPVTKSFNRGEC
notes: Humanised IgG1/kappa of A9H12 (IMP731); also called fucosylated H5L7; non-ADCC enhanced variant H5L7
As for B2, in test [1], the koff was 0.00395 s⁻¹. In addition, the Kd worked out at 26.3 nM in test [2]; 792 nM in test [3]; 638 nM in test [4]; 236 nM in test [5]; 752 nM in test [6]; 0.208 nM in test [7].

B3: IMP731 (antibody, human IgG1, kappa)
heavy: not shown
light: DIVMTQSPSSLAVSVGQKVTMSCKSSQSLLNGSNQKNYLAWYQQKPGQSPKLLVYFASTRDSGVPDRFIGSGSGTDFTLTISSVQAEDLADYFCLQHFGTPPTFGGGTKLEIKRTVAAPSVFIFPPSDEQLKSGTASVVCLLNNFYPREAKVQWKVDNALQSGNSQESVTEQDSKDSTYSLSSTLTLSKADYEKHKVYACEVTHQGLSSPVTKSFNRGEC
notes: Chimeric (murine variable domains, human IgG1/kappa constant regions); also called A9H12; chimeric antibody IMP731
Turning to B3, the koff in test [1] stood at 0.0275 s⁻¹. The Kd is 39 nM in test [2]; 2620 nM in test [3]; 1280 nM in test [4]; 406 nM in test [5]; 1750 nM in test [6]; 2.76 nM in test [7].
